Tests used:
[1] = biological target: Syndetin (endogenous, human cells) (human (endogenous in H4 and HeLa)) (UniProt Q96JG6); experiment: sedimentation velocity on glycerol gradients + SEC
[2] = biological target: T1, Syndetin (endogenous, human cells) (human (endogenous in H4 and HeLa), UniProt Q96JG6-1 1-964); experiment: sedimentation velocity on glycerol gradients + SEC
T1 sequence: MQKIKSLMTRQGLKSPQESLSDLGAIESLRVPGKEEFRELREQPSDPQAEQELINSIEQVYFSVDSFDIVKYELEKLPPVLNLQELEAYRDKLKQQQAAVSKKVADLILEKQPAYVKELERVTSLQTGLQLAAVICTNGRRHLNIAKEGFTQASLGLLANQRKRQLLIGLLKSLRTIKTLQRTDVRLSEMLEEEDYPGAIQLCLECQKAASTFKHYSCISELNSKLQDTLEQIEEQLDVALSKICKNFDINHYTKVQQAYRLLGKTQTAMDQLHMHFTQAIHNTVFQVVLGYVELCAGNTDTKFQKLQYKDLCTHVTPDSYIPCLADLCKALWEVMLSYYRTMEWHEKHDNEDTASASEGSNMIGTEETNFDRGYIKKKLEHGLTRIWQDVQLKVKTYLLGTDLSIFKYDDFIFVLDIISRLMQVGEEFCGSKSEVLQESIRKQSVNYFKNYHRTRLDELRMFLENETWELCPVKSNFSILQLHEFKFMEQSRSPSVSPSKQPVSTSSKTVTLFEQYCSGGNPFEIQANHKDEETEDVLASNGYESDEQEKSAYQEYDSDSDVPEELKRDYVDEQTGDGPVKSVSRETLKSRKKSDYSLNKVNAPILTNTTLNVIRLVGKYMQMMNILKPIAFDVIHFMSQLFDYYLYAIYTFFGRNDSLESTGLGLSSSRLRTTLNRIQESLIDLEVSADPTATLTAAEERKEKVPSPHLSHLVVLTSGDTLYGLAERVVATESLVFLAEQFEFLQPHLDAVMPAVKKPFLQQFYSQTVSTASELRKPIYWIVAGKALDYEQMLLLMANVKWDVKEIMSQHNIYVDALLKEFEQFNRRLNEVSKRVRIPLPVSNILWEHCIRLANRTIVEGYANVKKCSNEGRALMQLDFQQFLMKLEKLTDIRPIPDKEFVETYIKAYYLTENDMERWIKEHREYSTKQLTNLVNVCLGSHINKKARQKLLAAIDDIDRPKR

Molecule: Vps53 (endogenous, human cells) (from UniProt Q5VIR6 1-832) (natural protein)
- stoichiometry N [1]: 1

B1: Vps52 (endogenous, human cells) (natural protein)
chain: MAAAATMAAAARELVLRAGTSDMEEEEGPLAGGPGLQEPLQLGELDITSDEFILDEVDVHIQANLEDELVKEALKTGVDLRHYSKQVELELQQIEQKSIRDYIQESENIASLHNQITACDAVLERMEQMLGAFQSDLSSISSEIRTLQEQSGAMNIRLRNRQAVRGKLGELVDGLVVPSALVTAILEAPVTEPRFLEQLQELDAKAAAVREQEARGTAACADVRGVLDRLRVKAVTKIREFILQKIYSFRKPMTNYQIPQTALLKYRFFYQFLLGNERATAKEIRDEYVETLSKIYLSYYRSYLGRLMKVQYEEVAEKDDLMGVEDTAKKGFFSKPSLRSRNTIFTLGTRGSVISPTELEAPILVPHTAQRGEQRYPFEALFRSQHYALLDNSCREYLFICEFFVVSGPAAHDLFHAVMGRTLSMTLKHLDSYLADCYDAIAVFLCIHIVLRFRNIAAKRDVPALDRYWEQVLALLWPRFELILEMNVQSVRSTDPQRLGGLDTRPHYITRRYAEFSSALVSINQTIPNERTMQLLGQLQVEVENFVLRVAAEFSSRKEQLVFLINNYDMMLGVLMERAADDSKEVESFQQLLNARTQEFIEELLSPPFGGLVAFVKEAEALIERGQAERLRGEEARVTQLIRGFGSSWKSSVESLSQDVMRSFTNFRNGTSIIQGALTQLIQLYHRFHRVLSQPQLRALPARAELINIHHLMVELKKHKPNF
- stoichiometry N [2]: 1

B2: Ang2 (endogenous, human cells) (natural protein)
chain: MAAAAAAGPSPGSGPGDSPEGPEGEAPERRRKAHGMLKLYYGLSEGEAAGRPAGPDPLDPTDLNGAHFDPEVYLDKLRRECPLAQLMDSETDMVRQIRALDSDMQTLVYENYNKFISATDTIRKMKNDFRKMEDEMDRLATNMAVITDFSARISATLQDRHERITKLAGVHALLRKLQFLFELPSRLTKCVELGAYGQAVRYQGRAQAVLQQYQHLPSFRAIQDDCQVITARLAQQLRQRFREGGSGAPEQAECVELLLALGEPAEELCEEFLAHARGRLEKELRNLEAELGPSPPAPDVLEFTDHGGSGFVGGLCQVAAAYQELFAAQGPAGAEKLAAFARQLGSRYFALVERRLAQEQGGGDNSLLVRALDRFHRRLRAPGALLAAAGLADAATEIVERVARERLGHHLQGLRAAFLGCLTDVRQALAAPRVAGKEGPGLAELLANVASSILSHIKASLAAVHLFTAKEVSFSNKPYFRGEFCSQGVREGLIVGFVHSMCQTAQSFCDSPGEKGGATPPALLLLLSRLCLDYETATISYILTLTDEQFLVQDQFPVTPVSTLCAEARETARRLLTHYVKVQGLVISQMLRKSVETRDWLSTLEPRNVRAVMKRVVEDTTAIDVQVGLLYEEGVRKAQSSDSSKRTFSVYSSSRQQGRYAPSYTPSAPMDTNLLSNIQKLFSERIDVFSPVEFNKVSVLTGIIKISLKTLLECVRLRTFGRFGLQQVQVDCHFLQLYLWRFVADEELVHLLLDEVVASAALRCPDPVPMEPSVVEVICERG
- stoichiometry N [2]: 1

— publication PMC4417048 (Nature cell biology, 2015)
